# Measurements from US20260151499A1, “ANTIBODY DERIVATIVE AND USE THEREOF” (TSINGHUA UNIVERSITY, priority 2023, published 2026).
# Changes are numbered by the printed parent chain.
# T1: CD73 (Homo sapiens, UniProt P21589)
# T1 construct: His (Chis) (C); made in house; host or cells: 293 cells
# T1 sequence (P21589 27-549 limits assumed): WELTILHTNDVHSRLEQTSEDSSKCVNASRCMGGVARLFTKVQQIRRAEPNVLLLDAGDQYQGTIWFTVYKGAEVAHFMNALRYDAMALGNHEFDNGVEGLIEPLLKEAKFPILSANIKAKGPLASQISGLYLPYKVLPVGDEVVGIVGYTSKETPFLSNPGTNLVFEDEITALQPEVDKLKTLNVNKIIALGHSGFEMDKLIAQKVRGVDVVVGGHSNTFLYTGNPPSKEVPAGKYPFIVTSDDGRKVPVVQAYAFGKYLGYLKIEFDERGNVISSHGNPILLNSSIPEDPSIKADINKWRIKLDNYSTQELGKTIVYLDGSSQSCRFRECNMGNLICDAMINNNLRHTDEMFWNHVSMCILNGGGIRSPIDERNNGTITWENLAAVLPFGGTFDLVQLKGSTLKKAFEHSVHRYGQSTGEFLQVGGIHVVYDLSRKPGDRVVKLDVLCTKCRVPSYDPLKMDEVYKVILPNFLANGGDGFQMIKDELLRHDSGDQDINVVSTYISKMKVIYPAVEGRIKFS
# B1: F3-PEG3-ASF: IgG1 Ab-UAA F3 conjugated with ASF-PEG3-DBCO (conjugate)
# VH: EVQLVESGGGLVQPGGSLRLSCAASGFTFSGHWMHWVRQAPGKGLEWVASISDSSSYIYYADSVRGRFTISRDNAKKTLYLQMNSLRAEDTAVYYCARDYEGATRAADYWGQGTLVTVSS
# VL: DIQMTQSPSSLSASVGDRVTITCRASQVIGNDLGWYQQKPGKAPKLLIYDVSNVQTGVPSRFSGSRSGTDFTLTISSLQPEDFATYYCQQXYTTPPTFGQGTKLEI
# modifications: non-natural residues
# notes: IgG1 Ab-UAA F3 conjugated with ASF-PEG3-DBCO
# B2: 10A7-BN3: IgG1 antibody 10A7 conjugated to BN3 (conjugate)
# VH: EVQLVESGGGLVQPGGSLRLSCAASGFAFSSYSMSWVRQAPGKGLEWIGSIYYSGSTYYNPSLKSRVTISADTSKNTAYLQMNSLRAEDTAVYYCARNSGFETLDYWGQGTLVTVSS
# VL: DIQMTQSPSSLSASVGDRVTITCRASQGISRWLAWYQQKPGKAPNLLIYGASTLQSGVPPRFSGSRSGTDFTLTISSLQPEDFATYYCQQXYTTPPTFGQGTKLEI
# modifications: non-natural residues
# B3: 5A5-PEG3-ASF: antibody 5A5 conjugated with ASF-PEG3-DBCO (conjugate)
# VH: EVQLVESGGGLVQPGGSLRLSCAASGFPFSGHWMHWVRQAPGKGLEWVSGISWNGGTTGYADSVKGRFTISRDNAKNSVYLQMNSLRAEDTAVYYCARDDYGGDSFDSWGQGTLVTVSS
# VL: B2 VL with G28S, R31D, N45K, G50A, T53S, P60S
# modifications: non-natural residues
# notes: antibody 5A5 conjugated with ASF-PEG3-DBCO
# B4: 14E6-PEG3-ASF: antibody 14E6 conjugated with ASF-PEG3-DBCO (conjugate)
# VH: EVQLVESGGGLVQPGGSLRLSCAASGFTFSNFAMHWVRQAPGKGLEYVSAISGGNGGGTYYADSAKGRFTISADTSKNTAYLQMNSLRAEDTAVYYCAREGNYCLDYWGQGTLVTVSS
# VL: B2 VL with G28P, R31D, N45K, L46S, G50D, S52Y, T53N
# modifications: not fully specified; non-natural residues
# notes: antibody 14E6 conjugated with ASF-PEG3-DBCO
# B5: 14H4-PEG3-ASF: antibody 14H4 conjugated with ASF-PEG3-DBCO (conjugate)
# VH: EVQLVESGGGLVQPGGSLRLSCAASGFSFSKFWMHWVRQAPGKGLEWVAFMAHDESNKNYADSVKGRFTISADTSKNTAYLQMNSLRAEDTAVYYCARDKVCNTFDIWGQGTLVTVSS
# VL: B2 VL with G28S, R31S, W32D, A34N, N45K, G50R, S52T, T53F, Q55E, P60S
# modifications: not fully specified; non-natural residues
# notes: antibody 14H4 conjugated with ASF-PEG3-DBCO
# B6: 6D11: CD73 antibody clone, VH SEQ ID NO: 81, VL SEQ ID NO: 91 (antibody, V domains shown)
# VH: EVQLVESGGGLVQPGGSLRLSCAASGFTFSGHWMHWVRQAPGKGLEWIGSIYYSGSTYYNPSLKSRVTISADTSKNTAYLQMNSLRAEDTAVYYCARDRGWLQFDYWGQGTLVTVSS
# VL: B1 VL with V28N, N31T, D32Y, G34A, V51A, V54L, Q55E
# modifications: VARIANT 91 natural amino acid or unnatural amino acid
# B7: 10A7-Fab-BN3: papain-derived Fab of 10A7 conjugated with BN3, monovalent (conjugate)
# VH: B2 VH
# VL: B2 VL
# modifications: non-natural residues
# B8: ABN3-2B-BN3: IgG1 antibody ABN3-2B conjugated to BN3 (conjugate)
# VH: EVQLVESGGGLVQPGGSLRLSCAASGFTFSSYWMHWVRQAPGKGLEWVSAVSGSGDSTYYADSVKGRFTISADTSKNTAYLQMNSLRAEDTAVYYCAREGDWGLDYWGQGTLVTVSS
# VL: B1 VL with V28G, G30N, D32Y, G34A, V51A, V54L, Q55E
# modifications: not fully specified; non-natural residues
# B9: 10A7: CD73 antibody clone, VH SEQ ID NO: 73, VL SEQ ID NO: 83 (antibody, V domains shown)
# VH: B2 VH
# VL: B2 VL
# modifications: VARIANT 91 natural amino acid or unnatural amino acid
# B10: G3-PEG3-ASF: IgG1 Ab-UAA G3 conjugated with ASF-PEG3-DBCO (conjugate)
# VH: EVQLVESGGGLVQPGGSLRLSCAASGFTFSASYMSWVRQAPGKGLEWIGSIYYSGSTYYNPSLKSRVTISADTSKNTAYLQMNSLRAEDTAVYYCARGAPYYEGAFDIWGQGTLVTVSS
# VL: DIQMTQSPSSLSASVGDRVTITCRASQYISTYLNWYQQKPGKAPKVLISKTSYLESGVPSRFSGSRSGTDFTLTISSLQPEDFATYYCQQXYTTPPTFGQGTKLEI
# modifications: non-natural residues
# notes: IgG1 Ab-UAA G3 conjugated with ASF-PEG3-DBCO
# B11: ABN3-2G-BN3: IgG1 antibody ABN3-2G conjugated to BN3 (conjugate)
# VH: EVQLVESGGGLVQPGGSLRLSCAASGITFGSYTMSWVRQAPGKGLEWIGTVHYTGKTFYSPSLKSRVTISADTSKNTAYLQMNSLRAEDTAVYYCARGRDFGEPPYVRAFDIWGQGTLVTVSS
# VL: B1 VL with R24Q, Q27H, V28D, G30S, N31K, D32Y, G34N, V51A, V54L, Q55E
# modifications: not fully specified; non-natural residues
# B12: ABN3-2G: CD73 antibody clone, VH SEQ ID NO: 77, VL SEQ ID NO: 87 (antibody, V domains shown)
# VH: B11 VH
# VL: B1 VL with R24Q, Q27H, V28D, G30S, N31K, D32Y, G34N, V51A, V54L, Q55E
# modifications: not fully specified; VARIANT 91 natural amino acid or unnatural amino acid
# Legend:
# NaV1.7 = molecular target: T2, NaV1.7 (Homo sapiens, UniProt Q15858); assay: Whole-cell patch clamp, HEK293-NaV1.7 cells; type: cell-based; conditions: for IC50: non-competitive screening clones, 15 min incubation, read-out: IC50 ± SEM (nM) of Ab-PEG3-ASF in inhibiting NaV1.7; for inhibitory activity against NaV1.7 (in words): tested up to 500 nM where selectivity
# T2 construct: expressed in transfected cells; host or cells: HEK293
# T2 sequence (Q15858 whole entry): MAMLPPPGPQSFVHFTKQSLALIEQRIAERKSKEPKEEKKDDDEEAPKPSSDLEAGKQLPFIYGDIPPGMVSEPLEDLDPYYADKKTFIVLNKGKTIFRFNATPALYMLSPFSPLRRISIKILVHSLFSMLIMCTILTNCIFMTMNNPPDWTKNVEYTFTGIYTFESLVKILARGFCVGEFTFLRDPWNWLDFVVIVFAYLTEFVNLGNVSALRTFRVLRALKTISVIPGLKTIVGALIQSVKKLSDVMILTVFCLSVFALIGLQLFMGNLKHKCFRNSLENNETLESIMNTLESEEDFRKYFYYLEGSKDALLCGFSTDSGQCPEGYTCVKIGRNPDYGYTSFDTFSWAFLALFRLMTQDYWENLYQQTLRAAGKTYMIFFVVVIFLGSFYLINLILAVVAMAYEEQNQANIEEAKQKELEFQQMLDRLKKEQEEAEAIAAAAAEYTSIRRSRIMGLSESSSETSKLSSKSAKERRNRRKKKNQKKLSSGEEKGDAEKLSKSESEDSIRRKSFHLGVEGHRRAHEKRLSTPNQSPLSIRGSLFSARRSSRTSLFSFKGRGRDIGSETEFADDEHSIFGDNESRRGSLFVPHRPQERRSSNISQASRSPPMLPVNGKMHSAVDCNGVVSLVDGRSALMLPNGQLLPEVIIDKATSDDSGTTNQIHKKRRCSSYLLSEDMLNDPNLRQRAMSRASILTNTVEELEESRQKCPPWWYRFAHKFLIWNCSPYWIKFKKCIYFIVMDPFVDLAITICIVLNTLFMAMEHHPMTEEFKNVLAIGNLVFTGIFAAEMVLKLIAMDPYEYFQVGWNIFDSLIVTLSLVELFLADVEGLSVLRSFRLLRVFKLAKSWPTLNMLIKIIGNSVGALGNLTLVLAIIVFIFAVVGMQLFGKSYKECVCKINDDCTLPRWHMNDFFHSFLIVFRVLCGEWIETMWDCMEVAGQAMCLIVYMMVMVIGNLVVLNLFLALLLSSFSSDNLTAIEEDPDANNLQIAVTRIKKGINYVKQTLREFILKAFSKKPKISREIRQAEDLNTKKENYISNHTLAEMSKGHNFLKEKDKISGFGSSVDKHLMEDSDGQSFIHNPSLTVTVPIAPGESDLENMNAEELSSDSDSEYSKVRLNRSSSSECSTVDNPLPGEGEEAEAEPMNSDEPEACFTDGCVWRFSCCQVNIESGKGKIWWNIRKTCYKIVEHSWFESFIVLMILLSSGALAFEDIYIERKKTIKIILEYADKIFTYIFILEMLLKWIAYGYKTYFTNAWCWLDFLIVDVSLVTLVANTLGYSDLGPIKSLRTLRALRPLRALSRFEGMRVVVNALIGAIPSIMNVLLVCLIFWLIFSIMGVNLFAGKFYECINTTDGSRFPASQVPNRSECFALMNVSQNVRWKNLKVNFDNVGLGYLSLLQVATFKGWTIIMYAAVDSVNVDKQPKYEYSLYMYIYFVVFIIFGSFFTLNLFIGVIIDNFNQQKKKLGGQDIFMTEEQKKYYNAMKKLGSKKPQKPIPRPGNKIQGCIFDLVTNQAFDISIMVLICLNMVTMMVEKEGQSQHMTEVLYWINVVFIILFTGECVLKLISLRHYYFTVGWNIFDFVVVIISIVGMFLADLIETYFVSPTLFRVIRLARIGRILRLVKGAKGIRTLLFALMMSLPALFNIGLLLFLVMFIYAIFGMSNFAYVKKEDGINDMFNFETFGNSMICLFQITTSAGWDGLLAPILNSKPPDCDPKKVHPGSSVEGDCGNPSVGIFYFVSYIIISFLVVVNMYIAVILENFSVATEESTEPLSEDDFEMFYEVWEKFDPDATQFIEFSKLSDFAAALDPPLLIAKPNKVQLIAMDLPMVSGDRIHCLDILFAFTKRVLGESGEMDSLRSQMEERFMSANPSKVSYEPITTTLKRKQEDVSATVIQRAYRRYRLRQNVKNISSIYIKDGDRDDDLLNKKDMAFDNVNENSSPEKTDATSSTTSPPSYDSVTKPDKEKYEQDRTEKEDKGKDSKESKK
# NaV1.2 = molecular target: T3, NaV1.2 (Homo sapiens, UniProt Q99250); assay: Whole-cell patch clamp, HEK293-NaV1.2 cells; type: cell-based; conditions: for inhibitory activity against NaV1.2 (in words): tested up to 500 nM; for inhibitory activity against NaV1.2 at 100 nM (in words): 100 nM Ab-ASF
# T3 construct: expressed in transfected cells; host or cells: HEK293
# T3 sequence (Q99250 whole entry): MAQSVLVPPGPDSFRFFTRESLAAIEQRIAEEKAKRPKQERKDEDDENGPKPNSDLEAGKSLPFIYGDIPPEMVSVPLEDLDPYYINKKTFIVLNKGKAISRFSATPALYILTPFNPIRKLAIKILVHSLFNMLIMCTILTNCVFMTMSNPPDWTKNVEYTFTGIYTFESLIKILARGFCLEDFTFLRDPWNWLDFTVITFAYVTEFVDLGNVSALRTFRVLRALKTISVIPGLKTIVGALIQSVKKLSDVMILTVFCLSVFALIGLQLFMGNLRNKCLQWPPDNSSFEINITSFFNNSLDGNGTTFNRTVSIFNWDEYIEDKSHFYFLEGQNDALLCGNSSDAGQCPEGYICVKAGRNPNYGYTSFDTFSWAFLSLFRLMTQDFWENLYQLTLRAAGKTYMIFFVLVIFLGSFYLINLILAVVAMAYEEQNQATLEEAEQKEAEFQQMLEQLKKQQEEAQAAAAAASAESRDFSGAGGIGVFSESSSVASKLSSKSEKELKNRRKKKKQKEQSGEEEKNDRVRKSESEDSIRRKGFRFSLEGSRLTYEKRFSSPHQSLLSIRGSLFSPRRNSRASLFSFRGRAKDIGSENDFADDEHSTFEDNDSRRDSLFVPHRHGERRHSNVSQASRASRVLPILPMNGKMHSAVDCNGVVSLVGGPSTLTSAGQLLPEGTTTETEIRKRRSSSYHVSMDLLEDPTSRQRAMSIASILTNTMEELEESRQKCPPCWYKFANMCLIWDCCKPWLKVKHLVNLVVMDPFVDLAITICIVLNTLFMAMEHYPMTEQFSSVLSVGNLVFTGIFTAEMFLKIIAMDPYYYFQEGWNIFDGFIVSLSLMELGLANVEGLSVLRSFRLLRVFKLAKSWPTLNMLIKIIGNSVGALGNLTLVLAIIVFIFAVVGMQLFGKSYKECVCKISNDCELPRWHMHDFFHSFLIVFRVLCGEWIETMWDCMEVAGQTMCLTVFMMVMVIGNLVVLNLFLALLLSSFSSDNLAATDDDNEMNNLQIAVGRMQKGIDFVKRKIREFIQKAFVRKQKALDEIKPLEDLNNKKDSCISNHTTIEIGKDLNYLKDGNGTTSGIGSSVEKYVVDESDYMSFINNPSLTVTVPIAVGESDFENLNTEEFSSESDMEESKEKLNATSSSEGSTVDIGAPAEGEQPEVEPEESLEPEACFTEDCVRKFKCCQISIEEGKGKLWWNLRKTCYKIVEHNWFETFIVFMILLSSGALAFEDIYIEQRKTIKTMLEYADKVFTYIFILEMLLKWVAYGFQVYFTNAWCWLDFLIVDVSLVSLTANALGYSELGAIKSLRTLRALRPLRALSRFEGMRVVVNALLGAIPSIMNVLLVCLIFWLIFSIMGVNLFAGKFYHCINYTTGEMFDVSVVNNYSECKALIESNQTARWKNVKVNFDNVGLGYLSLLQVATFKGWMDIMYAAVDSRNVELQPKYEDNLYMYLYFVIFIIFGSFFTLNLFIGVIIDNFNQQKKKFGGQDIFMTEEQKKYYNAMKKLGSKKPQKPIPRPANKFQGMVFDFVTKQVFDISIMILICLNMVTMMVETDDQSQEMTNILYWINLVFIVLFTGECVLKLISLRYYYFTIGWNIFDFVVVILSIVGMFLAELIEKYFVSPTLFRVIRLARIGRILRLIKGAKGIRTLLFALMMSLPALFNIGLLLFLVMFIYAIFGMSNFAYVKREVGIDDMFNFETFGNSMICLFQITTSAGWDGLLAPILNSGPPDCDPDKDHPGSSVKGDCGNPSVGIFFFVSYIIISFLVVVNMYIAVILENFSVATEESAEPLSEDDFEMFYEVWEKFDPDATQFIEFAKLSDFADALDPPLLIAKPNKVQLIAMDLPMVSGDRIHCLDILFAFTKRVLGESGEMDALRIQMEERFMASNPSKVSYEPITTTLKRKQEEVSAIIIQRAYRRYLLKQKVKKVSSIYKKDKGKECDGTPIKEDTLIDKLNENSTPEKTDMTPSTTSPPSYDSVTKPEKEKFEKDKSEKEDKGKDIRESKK
# CD73 [1] = molecular target: T1, CD73; assay: CD73 inhibition, AMP hydrolysis, malachite green phosphate assay; type: biochemical; conditions: for IC50: full-length IgG1 conjugated to BN3, read-out: IC50 ± SD (nM) of Ab-BN3 for inhibition of CD73
# CD73 [2] = molecular target: T1, CD73; assay: Octet BLI affinity for CD73, Ab-BN3 on protein A sensors; type: binding
# NaV1.6 = molecular target: T4, NaV1.6 (Homo sapiens, UniProt Q9UQD0); assay: Whole-cell patch clamp, HEK293-NaV1.6 cells; type: cell-based
# T4 construct: expressed in transfected cells; host or cells: HEK293
molecule,measurement,setting,value
B1,IC50,NaV1.7,2.69 ± 0.687 nM
same,inhibitory activity against NaV1.2 (in words),NaV1.2,no inhibitory activity
B2,IC90,CD73 [1]; calculated from the inhibition curves,2.9 nM
same,Kdis,CD73 [2],0.000191 s⁻¹
same,Kon,CD73 [2],2.15 × 10^5 1/ms
B3,inhibitory activity against NaV1.7 (in words),NaV1.7,no inhibitory activity
same,inhibitory activity against NaV1.2 (in words),NaV1.2,no inhibitory activity
same,improvement of NaV1.6 inhibitory activity over ASF-PEG3-DBCO,NaV1.6,more than 20 fold
B4,inhibitory activity against NaV1.7 (in words),NaV1.7,no inhibitory activity
same,inhibitory activity against NaV1.2 at 100 nM (in words),NaV1.2,near-complete inhibition
B5,inhibition rate of NaV1.7 at 100 nM,NaV1.7; 100 nM,about 30%
same,inhibition rate of NaV1.7 at 500 nM,NaV1.7; 500 nM,about 40%
same,inhibitory activity against NaV1.2 at 100 nM (in words),NaV1.2,near-complete inhibition
B6,inhibitory activity against CD73 (in words),CD73 [1],weak inhibitory trend
same,IC50,CD73 [1],0.464 nM
B7,inhibitory activity against CD73 (in words),CD73 [1],retained strong inhibitory activity
B8,Kdis,CD73 [2],0.000582 s⁻¹
same,Kon,CD73 [2],1.85 × 10^5 1/ms
B9,IC50,CD73 [1],0.607 nM
B10,IC50,NaV1.7,1.88 ± 0.394 nM
same,inhibition of NaV1.2 at 500 nM,NaV1.2; highest tested concentration of 500 nM,approximately 60%
same,inhibitory activity against NaV1.2 (in words),NaV1.2,only weak inhibitory activity
B11,Kdis,CD73 [2],0.000271 s⁻¹
same,Kon,CD73 [2],3.05 × 10^5 1/ms
B12,IC50,CD73 [1],0.565 nM
